The text below walks through data of paper PMC5562738, “Structural basis for the broad substrate specificity of the human tyrosylprotein sulfotransferase-1” (Scientific Reports, 2017).

Data set [1] deals with recombinant human TPST1 (Lys43-Lys341), as crystallised with PAP and C4P5Y5 (human) (UniProt O60507).
Data set [2] deals with the molecule itself. Nature of the data set: crystal structure; human TPST1 (2.5 mg/ml) with 2 mM PAP and 1 mM C4P5Y5, sitting-drop vapor diffusion at 20 °C, 0.1 M Tris-HCl pH 8.5; 1.6 Å.
Data set [3] deals with the molecule itself. Nature of the data set: crystal structure; human TPST1 (5.0 mg/ml, His tag removed) with 2 mM PAP and 3 mM gastrin peptide, sitting-drop vapor diffusion at 20 °C, crystals soaked 1 d with 30 mM gastrin peptide; 2.3 Å.

With gastrin peptide, in data set [1], the K m of tyrosine sulfation of the peptide by human TPST1 ([35S]PAPS, TLC, 30 °C, pH 6.0) is 652 µM.

B1: recombinant human TPST1 (Lys43-Lys341), as crystallised with PAP and C4P5Y5 (enzyme, UniProt O60507 43-341, looked up)
chain: KLESTRTTVRTGLDLKANKTFAYHKDMPLIFIGGVPRSGTTLMRAMLDAHPDIRCGEETRVIPRILALKQMWSRSSKEKIRLDEAGVTDEVLDSAMQAFLLEIIVKHGEPAPYLCNKDPFALKSLTYLSRLFPNAKFLLMVRDGRASVHSMISRKVTIAGFDLNSYRDCLTKWNRAIETMYNQCMEVGYKKCMLVHYEQLVLHPERWMRTLLKFLQIPWNHSVLHHEEMIGKAGGVSLSKVERSTDQVIKPVNVGALSKWVGKIPPDVLQDMAVIAPMLAKLGYDPYANPPNYGKPDPK
notes: thrombin site after the His tag (pET15b); Ordered in the crystal: Tyr65-Pro338 and Ala64-Gly336; also called tyrosylprotein sulfotransferase-1; core domain of human TPST1; source: Origami (DE3) cells carrying pGro7 (GroEL, GroES), purified (Ni-NTA, Superdex 200)
For B1, in data set [2], the “stoichiometry N” value was 2.

B2: recombinant human TPST1 (Lys43-Lys341), His tag removed, as crystallised with PAP and the gastrin peptide (enzyme, UniProt O60507 43-341, looked up)
chain: B1 chain
notes: also called tyrosylprotein sulfotransferase-1; protomer-1A; source: Origami (DE3) cells carrying pGro7 (GroEL, GroES), purified (Ni-NTA, Superdex 200), His tag removed with bovine thrombin; not shown: 6xHis, N-terminal, cleaved
Take B2: in data set [3], the “stoichiometry N” value is 2.
